Measurements reported in paper PMC5736220, “Using thermal scanning assays to test protein-protein interactions of inner-ear cadherins” (PLoS ONE, 2017).

Legend:
Details in all cases: both partners purified
[1] = target: T1, protocadherin-15 EC1+2, wild type, His-tagged (mouse, UniProt Q99PJ1 27-259); assay: SPR; Biacore T100, Ni-NTA chip, 6xHis pcdh15 immobilised, tag-free cdh23 0.25 to 30 μM injected, 25°C, SEC buffer; global kinetic fit with EVILFIT (distribution model)
T1 construct: Protocadherin-15 (PCDH15), mouse, N-terminal fragment EC1+2; pET21a, NdeI/XhoI; predicted molecular weight 27.5 kDa; Held on the Ni-NTA chip by its His tag in SPR; also called pcdh15; pcdh15(WT); not shown: His6, C-terminal, kept

[2] = target: T1, protocadherin-15 EC1+2, wild type, …; assay: SPR; Biacore T100, Ni-NTA chip, 6xHis pcdh15 immobilised, tag-free cdh23 0.25 to 30 μM injected, 25°C, SEC buffer; KD from binding isotherms (Biacore T100 evaluation software)
[3] = target: T2, protocadherin-15 EC1+2 G16D, His-tagged (mouse, UniProt Q99PJ1 27-259, G16D); assay: SPR; Biacore T100, Ni-NTA chip, 6xHis pcdh15 immobilised, tag-free cdh23 0.25 to 30 μM injected, 25°C, SEC buffer; global kinetic fit with EVILFIT (distribution model)
T2 construct: Protocadherin-15 (PCDH15), mouse, N-terminal fragment EC1+2; Mutant of m12 made with QuikChange; Held on the Ni-NTA chip by its His tag in SPR; also called pcdh15(G16D); not shown: His6, C-terminal, kept

[4] = target: T2, protocadherin-15 EC1+2 G16D, His-tagged; assay: SPR; Biacore T100, Ni-NTA chip, 6xHis pcdh15 immobilised, tag-free cdh23 0.25 to 30 μM injected, 25°C, SEC buffer; KD from binding isotherms (Biacore T100 evaluation software)
[5] = target: T1, protocadherin-15 EC1+2, wild type, …; assay: thermal scanning (thermal stability shift assay with SYPRO orange); pcdh15 fixed at 0.1 mg/mL (~4 μM), cdh23 0.1 to 0.5 mg/mL (~4 to 20 μM; cdh23:pcdh15 1:1 to 5:1); SEC buffer (20 mM Tris-HCl pH 7.5, 150 mM KCl, 50 mM NaCl, 2 mM CaCl2); 10 to 95°C in 0.2°C steps, 5 s equilibration; read-out: shift of the Tm of pcdh15 (ΔTm)
[6] = target: T2, protocadherin-15 EC1+2 G16D, His-tagged; assay: as above
[7] = target: T3, protocadherin-15 EC1+2 Q165L, His-tagged (mouse, UniProt Q99PJ1 27-259, Q165L); assay: as above
T3 construct: Protocadherin-15 (PCDH15), mouse, N-terminal fragment EC1+2; Mutant of m12 made with QuikChange; Held on the Ni-NTA chip by its His tag in SPR; also called pcdh15(Q165L); not shown: His6, C-terminal, kept

[8] = target: T4, protocadherin-15 EC1+2 I108N, His-tagged (mouse, UniProt Q99PJ1 27-259, I108N); assay: as above
T4 construct: Protocadherin-15 (PCDH15), mouse, N-terminal fragment EC1+2; Deafness-related missense mutation put into the mouse fragment m12 with QuikChange; also called pcdh15(I108N)

[9] = target: T5, protocadherin-15 EC1+2 H91R, His-tagged (mouse, UniProt Q99PJ1 27-259, H91R); assay: as above
T5 construct: Protocadherin-15 (PCDH15), mouse, N-terminal fragment EC1+2; Mutant of m12 made with QuikChange; also called pcdh15(H91R)

Kd [1] | koff [1] | kon [1] | Kd [2] | Binder | ΔTm of pcdh15 at cdh23:pcdh15 1:1 [5] | ΔTm of pcdh15 at cdh23:pcdh15 2:1 [5] | ΔTm of pcdh15 at cdh23:pcdh15 3:1 [5] | ΔTm of pcdh15 at cdh23:pcdh15 4:1 [5] | ΔTm of pcdh15 at cdh23:pcdh15 5:1 [5] | also measured
3.25 ± 0.25 µM | 0.22 ± 0.04 s⁻¹ | 66000 M⁻¹ s⁻¹ | 1.58 ± 0.03 µM | cadherin-23 EC1+2 (residues 1-205) F7E, tagless (domain or fragment, mouse, an Ala residue included between CDH23 EC2 and the intein tag to improve cleavage efficiency; Mutant of m8; That the added Ala stays on the C-terminus after cleavage is surmised; also called cdh23(F7E)) QVNRLPEFTNHFFDTYLLISEDTPVGSSVTQLLARDMDNDPLVFGVSGEEASRFFAVEPDTGVVWLRQPLDRETKSEFTVEFSVSDHQGVITRKVNIQVGDVNDNAPTFHNQPYSVRIPENTPVGTPIFIVNATDPDLGAGGSVLYSFQPPSPFFAIDSARGIVTVIQELDYEVTQAYQLTVNATDQDKTRPLSTLANLAIIITDA | – | – | – | – | – | –
2.05 ± 0.1 µM | 0.11 ± 0.01 s⁻¹ | 55100 M⁻¹ s⁻¹ | 0.88 ± 0.06 µM | cadherin-23 EC1+2 (residues 1-205) T15E, tagless (domain or fragment, mouse, an Ala residue included between CDH23 EC2 and the intein tag to improve cleavage efficiency; Mutant of m8; That the added Ala stays on the C-terminus after cleavage is surmised; also called cdh23(T15E)) QVNRLPFFTNHFFDEYLLISEDTPVGSSVTQLLARDMDNDPLVFGVSGEEASRFFAVEPDTGVVWLRQPLDRETKSEFTVEFSVSDHQGVITRKVNIQVGDVNDNAPTFHNQPYSVRIPENTPVGTPIFIVNATDPDLGAGGSVLYSFQPPSPFFAIDSARGIVTVIQELDYEVTQAYQLTVNATDQDKTRPLSTLANLAIIITDA | – | – | – | – | – | Kd [3]: 1.42 ± 0.05 µM; koff [3]: 0.09 s⁻¹; kon [3]: 61400 M⁻¹ s⁻¹; Kd [4]: 0.62 ± 0.11 µM
2.79 ± 0.88 µM | 0.18 ± 0.01 s⁻¹ | 68800 M⁻¹ s⁻¹ | 1.16 ± 0.56 µM | cadherin-23 EC1+2 (residues 1-205) S76V, tagless (domain or fragment, mouse, an Ala residue included between CDH23 EC2 and the intein tag to improve cleavage efficiency; Mutant of m8; That the added Ala stays on the C-terminus after cleavage is surmised; also called cdh23(S76V)) QVNRLPFFTNHFFDTYLLISEDTPVGSSVTQLLARDMDNDPLVFGVSGEEASRFFAVEPDTGVVWLRQPLDRETKVEFTVEFSVSDHQGVITRKVNIQVGDVNDNAPTFHNQPYSVRIPENTPVGTPIFIVNATDPDLGAGGSVLYSFQPPSPFFAIDSARGIVTVIQELDYEVTQAYQLTVNATDQDKTRPLSTLANLAIIITDA | – | – | – | – | – | –
– | – | – | – | cadherin-23 EC1+2, wild type, His-tagged (domain or fragment, mouse, Cadherin-23 (CDH23), mouse, N-terminal fragment EC1+2; pET21a, NdeI/XhoI; predicted molecular weight 23.8 kDa; also called cdh23; cdh23(WT)) QVNRLPFFTNHFFDTYLLISEDTPVGSSVTQLLARDMDNDPLVFGVSGEEASRFFAVEPDTGVVWLRQPLDRETKSEFTVEFSVSDHQGVITRKVNIQVGDVNDNAPTFHNQPYSVRIPENTPVGTPIFIVNATDPDLGAGGSVLYSFQPPSPFFAIDSARGIVTVIQELDYEVTQAYQLTVNATDQDKTRPLSTLANLAIIITD | 1.8 ± 0.8 °C | 3.2 ± 0.7 °C | 4.1 ± 0.8 °C | 5 ± 0.7 °C | 5.5 ± 0.8 °C | ΔTm of pcdh15 at cdh23:pcdh15 1:1 [6]: 3 ± 0.5 °C; ΔTm of pcdh15 at cdh23:pcdh15 2:1 [6]: 4.5 ± 0.7 °C; ΔTm of pcdh15 at cdh23:pcdh15 3:1 [6]: 5.6 °C; ΔTm of pcdh15 at cdh23:pcdh15 4:1 [6]: 6.2 ± 0.1 °C; ΔTm of pcdh15 at cdh23:pcdh15 5:1 [6]: 6.8 ± 0.4 °C; ΔTm of pcdh15 at cdh23:pcdh15 1:1 [7]: 1.1 ± 0.4 °C; ΔTm of pcdh15 at cdh23:pcdh15 2:1 [7]: 1.7 ± 0.7 °C; ΔTm of pcdh15 at cdh23:pcdh15 3:1 [7]: 2.3 ± 0.6 °C; ΔTm of pcdh15 at cdh23:pcdh15 4:1 [7]: 2.7 ± 0.9 °C; ΔTm of pcdh15 at cdh23:pcdh15 5:1 [7]: 3.7 ± 1.1 °C; ΔTm of pcdh15 at cdh23:pcdh15 1:1 [8]: 0 °C; ΔTm of pcdh15 at cdh23:pcdh15 2:1 [8]: 0.2 ± 0.2 °C; ΔTm of pcdh15 at cdh23:pcdh15 3:1 [8]: 0.4 ± 0.1 °C; ΔTm of pcdh15 at cdh23:pcdh15 4:1 [8]: 0.4 ± 0.1 °C; ΔTm of pcdh15 at cdh23:pcdh15 5:1 [8]: 0.5 °C
– | – | – | – | cadherin-23 EC1+2 T79E, His-tagged (domain or fragment, mouse, Cadherin-23 (CDH23), mouse, N-terminal fragment EC1+2; Mutant of m1 made with QuikChange; also called cdh23(T79E)) QVNRLPFFTNHFFDTYLLISEDTPVGSSVTQLLARDMDNDPLVFGVSGEEASRFFAVEPDTGVVWLRQPLDRETKSEFEVEFSVSDHQGVITRKVNIQVGDVNDNAPTFHNQPYSVRIPENTPVGTPIFIVNATDPDLGAGGSVLYSFQPPSPFFAIDSARGIVTVIQELDYEVTQAYQLTVNATDQDKTRPLSTLANLAIIITD | – | – | – | – | – | ΔTm of pcdh15 at cdh23:pcdh15 1:1 [9]: 2.1 ± 0.4 °C; ΔTm of pcdh15 at cdh23:pcdh15 2:1 [9]: 4.1 ± 0.5 °C; ΔTm of pcdh15 at cdh23:pcdh15 3:1 [9]: 5.3 ± 1.8 °C; ΔTm of pcdh15 at cdh23:pcdh15 4:1 [9]: 6 ± 1.8 °C; ΔTm of pcdh15 at cdh23:pcdh15 5:1 [9]: 7.3 ± 1.3 °C
– | – | – | – | cadherin-23 EC1+2 T15E, His-tagged (domain or fragment, mouse, Cadherin-23 (CDH23), mouse, N-terminal fragment EC1+2; Mutant of m1 made with QuikChange; also called cdh23(T15E)) QVNRLPFFTNHFFDEYLLISEDTPVGSSVTQLLARDMDNDPLVFGVSGEEASRFFAVEPDTGVVWLRQPLDRETKSEFTVEFSVSDHQGVITRKVNIQVGDVNDNAPTFHNQPYSVRIPENTPVGTPIFIVNATDPDLGAGGSVLYSFQPPSPFFAIDSARGIVTVIQELDYEVTQAYQLTVNATDQDKTRPLSTLANLAIIITD | 2.3 ± 0.4 °C | 3.9 °C | 4.8 ± 0.1 °C | 6 ± 0.5 °C | 6.7 ± 0.6 °C | ΔTm of pcdh15 at cdh23:pcdh15 1:1 [6]: 2.4 ± 0.4 °C; ΔTm of pcdh15 at cdh23:pcdh15 2:1 [6]: 4.5 ± 0.8 °C; ΔTm of pcdh15 at cdh23:pcdh15 3:1 [6]: 5.5 ± 0.7 °C; ΔTm of pcdh15 at cdh23:pcdh15 4:1 [6]: 6.5 ± 1.2 °C; ΔTm of pcdh15 at cdh23:pcdh15 5:1 [6]: 7.2 ± 1.1 °C
– | – | – | – | cadherin-23 EC1+2 F7E, His-tagged (domain or fragment, mouse, Cadherin-23 (CDH23), mouse, N-terminal fragment EC1+2; Mutant of m1 made with QuikChange; also called cdh23(F7E)) QVNRLPEFTNHFFDTYLLISEDTPVGSSVTQLLARDMDNDPLVFGVSGEEASRFFAVEPDTGVVWLRQPLDRETKSEFTVEFSVSDHQGVITRKVNIQVGDVNDNAPTFHNQPYSVRIPENTPVGTPIFIVNATDPDLGAGGSVLYSFQPPSPFFAIDSARGIVTVIQELDYEVTQAYQLTVNATDQDKTRPLSTLANLAIIITD | 1.7 ± 0.6 °C | 4.8 ± 0.6 °C | 5.5 ± 0.3 °C | 5.9 ± 0.2 °C | 7 ± 0.2 °C | –
– | – | – | – | cadherin-23 EC1+2 S76V, His-tagged (domain or fragment, mouse, Cadherin-23 (CDH23), mouse, N-terminal fragment EC1+2; Mutant of m1 made with QuikChange; also called cdh23(S76V)) QVNRLPFFTNHFFDTYLLISEDTPVGSSVTQLLARDMDNDPLVFGVSGEEASRFFAVEPDTGVVWLRQPLDRETKVEFTVEFSVSDHQGVITRKVNIQVGDVNDNAPTFHNQPYSVRIPENTPVGTPIFIVNATDPDLGAGGSVLYSFQPPSPFFAIDSARGIVTVIQELDYEVTQAYQLTVNATDQDKTRPLSTLANLAIIITD | 1.7 ± 1 °C | 3 ± 1.7 °C | 4 ± 1.5 °C | 5.1 ± 1.8 °C | 5.4 ± 1.9 °C | –
